Test results as given in US8252554B2, “Halohydrin dehalogenases and related polynucleotides” (Codexis, Inc., priority 2003, dated 2012).
Where a chain is given by its changes, count along the chain named. Numbers in names are those of the source.

B1: W139R/N176E: intermediate active HHDH variant with W139 and N176 mutated into an apparent salt bridge (with reference to SEQ ID NO: 2) (protein)
chain: MSTAIVTNVKHFGGMGSALRLSEAGHTVACHDESFKQKDELEAFAETYPQLKPMSEQEPAELIEAVTSAYGQVDVLVSNDIFAPEFQPIDKYAVEDYRGAVEALQIRPFALVNAVASQMKKRKSGHIIFITSATPFGPRKELSTYTSARAGACTLANALSKELGEYNIPVFAIGPEYLHSEDSPYFYPTEPWKTNPEHVAHVKKVTALQRLGTQKELGELVAFLASGSCDYLTGQVFWLAGGFPMIERWPGMPE
B2: SEQ ID NO: 14: improved HHDH (halohydrin dehalogenase) polypeptide of the Sequence Listing (protein)
chain: B1 chain with V6D, G14S, M15K, S17T, E40D, A133S, R139W, E176N
B3: SEQ ID NO: 24: improved HHDH (halohydrin dehalogenase) polypeptide of the Sequence Listing (protein)
chain: B1 chain with R139W, E176N, V199M
B4: SEQ ID NO: 26: improved HHDH (halohydrin dehalogenase) polypeptide of the Sequence Listing (protein)
chain: B1 chain with F136L, R139W, E176N
B5: SEQ ID NO: 20: improved HHDH (halohydrin dehalogenase) polypeptide of the Sequence Listing (protein)
chain: B1 chain with T3P, R139W, E176N
B6: SEQ ID NO: 22: improved HHDH (halohydrin dehalogenase) polypeptide of the Sequence Listing (protein)
chain: B1 chain with K36N, R139W, E176N, M252V
B7: SEQ ID NO: 6: improved HHDH (halohydrin dehalogenase) polypeptide of the Sequence Listing (protein)
chain: B1 chain with A24T, R139W, E176N
B8: SEQ ID NO: 12: improved HHDH (halohydrin dehalogenase) polypeptide of the Sequence Listing (protein)
chain: B1 chain with T3P, V9I, G13S, G16C, S17R, R139W, E176N
B9: SEQ ID NO: 30: improved HHDH (halohydrin dehalogenase) polypeptide of the Sequence Listing (protein)
chain: B1 chain with A4V, R139W, E176N
B10: SEQ ID NO: 10: improved HHDH (halohydrin dehalogenase) polypeptide of the Sequence Listing (protein)
chain: B1 chain with S2T, T3A, A29T, S34R, F35L, K52N, R139W, E176N
B11: SEQ ID NO: 34: improved HHDH (halohydrin dehalogenase) polypeptide of the Sequence Listing (protein)
chain: B1 chain with T3P, S17T, H26Q, R139W, E176N
B12: W139D/N176R: intermediate active HHDH variant with W139 and N176 mutated into an apparent salt bridge (with reference to SEQ ID NO: 2) (protein)
chain: B1 chain with R139D, E176R
B13: SEQ ID NO: 16: improved HHDH (halohydrin dehalogenase) polypeptide of the Sequence Listing (protein)
chain: B1 chain with F136L, R139W, E176N
B14: SEQ ID NO: 8: improved HHDH (halohydrin dehalogenase) polypeptide of the Sequence Listing (protein)
chain: B1 chain with R20S, A29T, R139W, E176N
B15: SEQ ID NO: 4: improved HHDH (halohydrin dehalogenase) polypeptide of the Sequence Listing (protein)
chain: B1 chain with K36N, F44L, A45P, S55R, R139W, E176N
B16: SEQ ID NO: 18: improved HHDH (halohydrin dehalogenase) polypeptide of the Sequence Listing (protein)
chain: MSTAIVTNVKHFGGMGSALRLSEAGHTVACHDESFKQKDELEAFAETYPQLKPMSEQEPAELIEAVTSAYGQVDVLVSNDIFAPEFQPIDKYAVEDYRGAVEALQIRPFALVNAVASQMKKRKSGHIIFITSATPFGPWKELSTYTSARAGACTLANALSKELGEYNIPVFAIGPNYLHSEDSPYFYPTEPWKTNPEHVAHVKKVTALQRLGTQKELGELVAFLASGSCDYLTGQGFFLAGGFPMIERWPGM
B17: SEQ ID NO: 28: improved HHDH (halohydrin dehalogenase) polypeptide of the Sequence Listing (protein)
chain: B16 chain with T3P, G236V, F238W

How the values were obtained:
HHDH = HHDH (Agrobacterium tumefaciens, UniProt Q93D82); assay: Inhibition of HHDH by ECAA; format: biochemical; settings: inhibitor of HHDH
HHDH, sequence (Q93D82 entry or part of it): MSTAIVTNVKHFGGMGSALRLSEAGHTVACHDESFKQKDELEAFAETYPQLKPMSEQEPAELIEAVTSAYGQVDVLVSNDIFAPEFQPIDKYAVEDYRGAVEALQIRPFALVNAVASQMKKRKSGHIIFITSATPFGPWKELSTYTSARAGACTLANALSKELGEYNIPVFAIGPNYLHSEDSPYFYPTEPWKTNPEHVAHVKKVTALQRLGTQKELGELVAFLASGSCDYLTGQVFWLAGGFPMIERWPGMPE

[1] = Example 5A gas chromatography assay of HHDH activity (conversion of ECHB to ethyl (R)-4-cyano-3-hydroxybutyrate); format: biochemical; settings: for HHDH activity greater than the HHDH activity of Agrobacterium sp. (wild-type) HHDH (SEQ ID NO: 2): assay described in Example 5A; for Fold Improvement in HHDH Activity over Aerobacterium sp. HHDH (SEQ ID NO: 2): ECHB substrate, Activity of Improved HHDH Enzyme/Activity of Agrobacterium sp. HHDH (SEQ ID NO: 2)
Protocol: To a solution of ethyl (S)-4-chloro-3-hydroxybutyrate (10 mM-100 mM) in 500 mM HCN (500 mM NaCN adjusted to pH 7.0 with phosphoric acid) was added the halohydrin dehalogenase enzyme as a predissolved solution in the same buffer. Over time, aliquots of the mixture were withdrawn and extracted with three volumes of ethyl acetate. The organic layer was then analysed for ethyl (R)-4-cyano-3-hydroxybutyrate by gas chromatography (GC), as described hereinbelow in Example 6. Samples were taken at various time points, and the peak area of the product cyanohydrin, ethyl (R)-4-cyano-3-hydroxybutyrate, was plotted as a function of time. Time points are selected at low conversion, for example, less than 5% conversion, to avoid the effect of product inhibition (e.g., 0.5%, 1.0%, 1.5%, 2.0%, 2.5%, 3.0%, etc.). The peak areas were converted to concentration units using a standard curve that was prepared for the ethyl (R)-4-cyano-3-hydroxybutyrate. Activity of the halohydrin dehalogenase was determined in units of μmol (cyanohydrin produced)/min/mg (total halohydrin dehalogenase catalyst). Relative activities of some of the clones are shown in Table 2, computed as Activity of Improved HHDH Enzyme/Activity of Agrobacterium sp. HHDH (SEQ ID NO: 2).
The ethyl (R)-4-cyano-3-hydroxybutyrate produced in Example 5A was analyzed using gas chromatography with flame ionization (FID) detection using an Agilent® HP-5™ column, 30 m long, 0.32 mm inner diameter, film 0.25 μm, using the following program: 1 minute at 100° C., 5° C./minute for 10 minutes; 25° C./minute for 2 minutes; then 2 minutes at 200° C. Inlet and outlet temperatures were both 300° C., and the flow rate was 2 ml/minute. Under these conditions, ethyl (R)-4-cyano-3-hydroxybutyrate elutes at 6.25 minutes and ethyl (S)-4-chloro-3-hydroxybutyrate elutes at 4.5 minutes. Chemical purity of the species was measured using the integrated peak areas from the gas chromatography results.

Molecule | Fold Improvement in HHDH Activity over Aerobacterium sp. HHDH (SEQ ID NO: 2) [1] | other results
CCOC(=O)CC(=O)CCl [ECAA, Ethyl-4-chloroacetoacetate] | – | Ki (HHDH): ~70 µM
B1 | – | HHDH activity greater than the HHDH activity of Agrobacterium sp. (wild-type) HHDH (SEQ ID NO: 2) [1]: greater HHDH activity relative to wildtype HHDH
B2 | 1.4 Fold | –
B3 | 3.2 Fold | –
B4 | 1.7 Fold | –
B5 | 3.8 Fold | –
B6 | 2.5 Fold | –
B7 | 1.6 Fold | –
B8 | 2.5 Fold | –
B9 | 2.8 Fold | –
B10 | 1.7 Fold | –
B11 | 2.4 Fold | –
B12 | – | HHDH activity greater than the HHDH activity of Agrobacterium sp. (wild-type) HHDH (SEQ ID NO: 2) [1]: greater HHDH activity relative to wildtype HHDH
B13 | 2.0 Fold | –
B14 | 1.8 Fold | –
B15 | 1.5 Fold | –
B16 | 2.7 Fold | –
B17 | 2.2 Fold | –
